In general, stoichiometry N refers to a count of units in the complex or per binding partner.

The results in this text go back to publication PMC8640741.

The test concerns the target SARS-CoV-2 spike (S) protein in the postfusion state, in situ on the viral membrane (SARS-CoV-2). As to the kind of experiment: cryo-EM structure.

For the substance “SARS-CoV-2 spike (S) protein in the postfusion state, in situ on the viral membrane (natural protein)”, the stoichiometry N was determined as 3.
